The values below come from PMC7060200, “Selective Binding of HSC70 and its Co-Chaperones to Structural Hotspots on CFTR” (Scientific Reports, 2020).

Common to all, as to conditions: both partners purified
Assay [1] has as its target T1, HSC70 (HSPA8), His-tagged (UniProt P11142 1-646).
T1 construct: HSC70 (HSPA8), the constitutive form of HSP70
The assay can be described thus: ELISA; competition: 1 μM chaperone mixed with soluble peptide (titrated up to 100 μM, or fixed 100 μM in the screens) and bound to immobilised 1097-L; Kd of the competing peptide from linearised competition curves. On the technique in general: In an ELISA, binding on a coated surface is turned into a signal by an enzyme label.

Assay [2] deals with T2, DNAJA1 (DJA1), His-tagged (UniProt P31689 1-397).
T2 construct: DNAJA1, J-domain co-chaperone of HSC70
The description is as above.

The target of assay [3] is T3, DNAJA2 (DJA2), His-tagged (UniProt O60884 1-412).
T3 construct: DNAJA2, J-domain co-chaperone of HSC70
T3 sequence (O60884 whole entry): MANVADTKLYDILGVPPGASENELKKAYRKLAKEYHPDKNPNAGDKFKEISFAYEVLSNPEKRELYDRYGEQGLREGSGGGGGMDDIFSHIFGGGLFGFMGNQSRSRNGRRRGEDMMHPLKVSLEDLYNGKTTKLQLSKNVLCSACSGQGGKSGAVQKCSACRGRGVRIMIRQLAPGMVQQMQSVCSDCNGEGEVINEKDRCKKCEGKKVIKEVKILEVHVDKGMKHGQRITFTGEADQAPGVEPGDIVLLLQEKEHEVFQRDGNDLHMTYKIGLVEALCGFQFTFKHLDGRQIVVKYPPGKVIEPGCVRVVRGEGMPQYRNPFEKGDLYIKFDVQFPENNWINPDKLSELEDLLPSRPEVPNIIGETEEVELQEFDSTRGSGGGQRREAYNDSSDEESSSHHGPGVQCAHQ
Described as above.

Assay [4] concerns the target T1, HSC70 (HSPA8), His-tagged. The assay can be described thus: ELISA; titration of increasing concentrations of chaperone on immobilised biotinylated peptide; HSC70 with ATP; apparent Kd from linearised binding curves.
In assay [5] the target is T2, DNAJA1 (DJA1), His-tagged. The assay is described as above.
For assay [6], the target named is T3, DNAJA2 (DJA2), His-tagged. The description is as above.

Ends that are not written are not given here. * marks the point of attachment. Biotin = O=C1N[C@H]2[C@H](CS[C@H]2CCCCC(=O)*)N1

T1 sequence (P11142 whole entry): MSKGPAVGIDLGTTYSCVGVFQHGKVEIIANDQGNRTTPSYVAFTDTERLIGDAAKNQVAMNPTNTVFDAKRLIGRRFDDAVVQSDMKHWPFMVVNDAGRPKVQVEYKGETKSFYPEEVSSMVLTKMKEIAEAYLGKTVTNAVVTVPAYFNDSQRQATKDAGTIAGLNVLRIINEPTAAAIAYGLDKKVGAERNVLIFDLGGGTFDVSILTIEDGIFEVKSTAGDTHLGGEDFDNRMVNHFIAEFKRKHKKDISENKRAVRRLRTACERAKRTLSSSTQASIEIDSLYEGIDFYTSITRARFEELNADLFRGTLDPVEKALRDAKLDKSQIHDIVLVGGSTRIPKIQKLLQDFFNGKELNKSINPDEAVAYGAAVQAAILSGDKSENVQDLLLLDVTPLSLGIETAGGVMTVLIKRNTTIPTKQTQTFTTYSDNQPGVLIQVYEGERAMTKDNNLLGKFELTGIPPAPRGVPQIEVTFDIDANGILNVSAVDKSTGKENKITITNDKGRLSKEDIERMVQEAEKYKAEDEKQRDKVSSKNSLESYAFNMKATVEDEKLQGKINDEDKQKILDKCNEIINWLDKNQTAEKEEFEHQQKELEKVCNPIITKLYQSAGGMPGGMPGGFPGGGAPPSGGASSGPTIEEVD

B1: CFTR peptide 1295-S (peptide, UniProt P13569 1291-1299, looked up)
peptide: QKVFIFSGT
notes: source: synthetic peptide (Lifetein, unmodified, >85% purity)
Consider B1, for which, in assay [1], the Kd was 1260 nM.

B2: CFTR peptide 1403-L, soluble unmodified (peptide, UniProt P13569 1396-1410, looked up)
peptide: TVILCEHRIEAMLEC
notes: CFTR, 15-mer numbered by its middle residue 1403, from NBD2; source: synthetic peptide (Lifetein, unmodified, >85% purity)
As to B2, the Kd in assay [1] is 2660 nM; in assay [2] it was 9150 nM; in assay [3], 994 nM.

B3: CFTR peptide 1293-L, soluble unmodified (peptide, UniProt P13569 1286-1300, looked up)
peptide: FGVIPQKVFIFSGTF
notes: as for B1
B3 yielded a Kd in assay [1] of 2020 nM.

B4: CFTR peptide 1393-L, soluble unmodified (peptide, UniProt P13569 1386-1400, looked up)
peptide: RTLKQAFADCTVILC
notes: CFTR, 15-mer numbered by its middle residue 1393, from NBD2; source: synthetic peptide (Lifetein, unmodified, >85% purity)
For the molecule B4, the Kd in assay [1] was 1040 nM; in assay [2], 15700 nM; in assay [3] it was 1490 nM.

B5: CFTR peptide 1393-L, biotinylated (library form) (peptide)
peptide: Biotin-GSGSRTLKQAFADCTVILC
modifications: cysteine pairing not given here
notes: linker; CFTR, 15-mer numbered by its middle residue 1393, from NBD2; source: synthetic peptide (Mimotopes, PepSet purity)
Consider B5, for which the Kd stood at 9060 nM in assay [4], 1500 nM in assay [5] and 1120 nM in assay [6].

B6: CFTR peptide 1403-L, biotinylated (library form) (peptide)
peptide: Biotin-GSGSTVILCEHRIEAMLEC
modifications: cysteine pairing not given here
notes: linker; CFTR, 15-mer numbered by its middle residue 1403, from NBD2; source: synthetic peptide (Mimotopes, PepSet purity)
As for B6, the figures for the Kd in assay [4], in assay [5] and in assay [6] were 11100 nM, 1490 nM and 1190 nM, respectively.

B7: CFTR peptide 469-S (peptide, UniProt P13569 465-473, looked up)
peptide: TSLLMVIMG
notes: as for B1
For the molecule B7, the Kd is 1560 nM in assay [1] and 4820 nM in assay [3].

B8: CFTR peptide 1100-S (peptide, UniProt P13569 1096-1104, looked up)
peptide: LRWFQMRIE
notes: CFTR, 9-mer numbered by its central residue 1100, L4 side of the NT-L4 interface; source: synthetic peptide (Lifetein, unmodified, >85% purity)
In assay [3], B8 had a Kd of 8330 nM.

B9: CFTR peptide 618-S (peptide, UniProt P13569 614-622, looked up)
peptide: DKILILHEG
notes: as for B1
The molecule B9 registered a Kd in assay [1] of 3730 nM.

B10: CFTR peptide 17-S (peptide, UniProt P13569 13-21, looked up)
peptide: SKLFFSWTR
notes: CFTR, 9-mer numbered by its central residue 17, from the NT; source: synthetic peptide (Lifetein, unmodified, >85% purity)
For B10, the Kd in assay [1] was 1760 nM.

B11: CFTR peptide 1398-S (peptide, UniProt P13569 1394-1402, looked up)
peptide: DCTVILCEH
notes: as for B1
For the molecule B11, the Kd stood at 900 nM in assay [1], 18300 nM in assay [2] and 4450 nM in assay [3].
